Assays:
[1] = target: D-CXCL8 (mirror-image human CXCL8) (synthetic (human sequence)) (UniProt P10145); assay: competition; conditions: competition pull-down vs labelled 315-F8-001; 37 C
[2] = target: CXCL8 (IL-8) (Homo sapiens) (UniProt P10145); assay: SPR; conditions: L-RNA, CXCL8 immobilised
[3] = target: D-CXCL8 (mirror-image human CXCL8) (synthetic (human sequence)) (UniProt P10145); assay: pulldown; conditions: direct pull-down, 37 C

Sequence: CUGACGGAAGUACGUGGAAAGCCGAAAGUGUGUCCCGGUCAG [315-F8-002 (D)]
- Kd [1]: 1100 pM

Sequence: CUGACGGAAGUACGUGGAAAGCCGAAAGUGUGUCCCGGUCAG [315-F8-002 (L)]
- Kd ([2]; 25 C): 220 pM
- Kd ([2]; 37 C): 750 pM

Sequence: CUGACGGAAGUACGUGGAAAGCCGAAAGUGUGUCCCGGUCAG [315-F8-002-PEG (AON-S08)]
- Kd ([2]; 5'-aminohexyl linker with 40 kDa Y-shape PEG, 25 C): 200 pM
- Kd ([2]; 5'-aminohexyl linker with 40 kDa Y-shape PEG, 37 C): 800 pM

Sequence: GCUGACGGAAGUACGUGGAAAGCCAAUGAGUGUGUCCCGGUCAGC [315-H9-001 (D)]
- Kd [3]: 1700 pM

Sequence: GCUGACGGAAGUACGUGGAAAGCCGAAAGUGUGUCCCGGUCAGC [315-F8-001 (D)]
- Kd ([3]; 20 mM Tris pH 7.4, 150 mM NaCl, 5 mM KCl, 1 mM MgCl2, 1 mM CaCl2, yeast RNA): 800 pM

Sequence: GCUGACGGAAGUACGUGGAAAGCCGAAAGUGUGUCCCGGUCAGC [315-F8-001 (L)]
- Kd ([2]; 25 C, 20 mM Tris pH 7.4, 150 mM NaCl, 5 mM KCl, 1 mM MgCl2, 1 mM CaCl2): 220 pM
- Kd ([2]; 37 C): 680 pM
